Experimental data taken from patent US20250019422A1 (MAX PLANCK GESELLSCHAFT ZUR F RDERUNG DER WISSENSCHAFTEN E V, published 2025).
Where two headings read alike, the source gives them in different places.

Columns and labels:
B.1.617.2/Delta [1] = target: B.1.617.2/Delta
[2] = target: T1, RBD of the SARS-CoV-2 Omicron variant BA.2.75 (SARS-CoV-2 Omicron variant BA.2.75)
B.1.617.2/Delta [3] = target: B.1.617.2/Delta; remark: listed apart in the source
[4] = target: T1, RBD of the SARS-CoV-2 Omicron variant …; remark: listed apart in the source

| Binder | Kd (B.1.617.2/Delta [1]) [nM] | Kd [2] [nM] | Kd (B.1.617.2/Delta [3]) [nM] | Kd [4] [nM] |
| --- | --- | --- | --- | --- |
| Re32D03 (VHH) VHH: QVQLVESGGGLVQPGGSLRLSCAISGITLDYYAVGWFLQAPGKEREGISCMRNWDGRTVYAPSVKGRFTISSDNAKKMVYLEMDNLKSEDTGVYYCAAGPLPPGISCRIPTPLGYDDWGQGTQVTVSS | ≤ 0.01 | 0.35 |  |  |
| Re6H06 (VHH) VHH: QVQLVESGGGLVQPGGSLRLSCAASGVTLDYYAIGWFRQAPGKEREGVSCTSSSDGSTYYADSVKGRFTISRDNAKNTVYLQMNSLKPEDTGVYYCAVVPQTYYGGKYYSQCTANGMDYWGKGTLVTVSS |  |  | 0.1 | ≥ 1000 |
| Re5D06 (VHH) VHH: QVQLVESGGGLVQPGGSLRLSCAASGITLDYYAIGWFRQAPGKEREGVSRIRSSDGSTNYADSVKGRFTMSRDNAKNTVYLQMNSLKPEDTAVYYCAYGPLTKYGSSWYWPYEYDYWGQGTQVTVSS |  |  | 0.2 |  |
| Re9B09 (VHH, also called ReB09) VHH: QVQLVESGGGLVQPGGSLRLSCAASGFTLDYYAIGWFRQAPGKEREGVSRISSSDGSTDYADSVKGRFTISRDNAKNTVYLQMNSLKPEDTAVYYCATVPGTYYSGNWYYTWHPEAVDYWGKGTQVTVSS | 0.3 | 2 |  |  |
